Measurements published in patent US20050069530A1.

Biological target: human type IIA sPLA2 (human) (UniProt P14555)
Assay: cell-based or functional assay

human type IIA sPLA2 (human), sequence (P14555 21-144): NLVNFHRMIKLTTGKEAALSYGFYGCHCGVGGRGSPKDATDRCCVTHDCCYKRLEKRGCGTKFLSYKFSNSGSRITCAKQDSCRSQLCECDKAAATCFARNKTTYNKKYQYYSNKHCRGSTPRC

Compared with PIP (57-67) (peptide), PIP (58-67) (peptide) is higher in Mean % Inhibition at fixed peptide concentration [5 µM]: 14.2% for the first, 59.5% for the second.

First: PIP (59-67) (peptide)
Second: PIP (56-67) (peptide)
The Mean % Inhibition at fixed peptide concentration [5 µM] of the first is higher: 56.4% for the first, 34.2% for the second.

D60, 65E-PIP (59-67) (peptide) and PIP (60-67) (peptide) are within 1.5-fold of each other in IC50 of sPLA2 enzyme inhibition (3H-labelled E. coli membranes as substrate): 4.2 µM for the first, 5.75 µM for the second.

PIP (58-67) (peptide) and PIP (59-67) (peptide) are within 1.5-fold of each other in IC50 of sPLA2 enzyme inhibition (3H-labelled E. coli membranes as substrate): 3.67 µM for the first, 3.8 µM for the second.
